In patent US20240408183A1, “KYNURENINE AMINOTRANSFERASE AND PRODUCTS THEREOF FOR THE TREATMENT OF INFLAMMATORY BOWEL DISEASES” (Institut National De Recherche Pour L'Agriculture, …, priority 2021, published 2024):

What was measured:
[1] = test system: mice submitted to DSS-induced colitis; assay: DSS-induced colitis model in mice; format: in vivo, mouse (C57BL/6JRj); conditions: purified AADAT intraperitoneally
Method: C57BL/6JRj from Janvier lab, 7 weeks old, were housed in our specific pathogen free animal facility at IERP (INRA, Jouy en Josas, France). Five to ten female mice per group were used in all experiment, were maintained in a temperature controlled (23° C.) facility with a strict 12 h light/dark cycles and were given free access to food and water. After one acclimation week, we changed water with DSS 2% (MP Biomedical) during 7 days (day 0 to day 7), and a
recovery period was practiced until day 12 (during 5 days). Body weight loss and DAI (disease activity index) were performed daily. After 12 days the samples were harvested.
Colon distal part (cut in three parts) was harvested at day 12 after DSS model and put directly in PFA (Rothi®—Histofix 4%) during 48 h and transferred in ethanol 70% until the standard pre-fixation automat and paraffin embedded. HES coloration was practiced on 5Im cut.
Data were analyzed using Prism version 7 (Graphpad Software, San Diego, USA). The non-parametric Mann Withney test or the parametric one-way ANOVA tests with multiple Bonferroni's comparison tests were performed. Values are expressed as mean±SEM. Statistical significance was defined at a p-value ****<0.0001, ***<0.001, **<0.01, *<0.05.

[2] = test system: kynurenine (KYNU) and 3-hydroxykynurenin, substrates of AADAT; assay: AADAT activity test (disappearance of kynurenine/3-hydroxykynurenin; production of KYNA and XANA in vitro); format: biochemical; conditions: 15 min, KYNU 1000 μM, FIG. 4F
Method: KAT activity may be assessed by any method known by the skilled person. For instance, KAT activity could be assessed as described in the experimental section, i.e. an assay based on the disappearance of kynurenine and/or 3-hydroxykynurenin. Briefly, a reaction mixture (50 μL final volume) containing 10 mM L-kynurenine or 3-hydroxykynurenin, 2 mM α-oxoglutarate, 40 μM PLP (pyridoxal 5′-phosphate) and 0 or 1 μL of the protein to be tested prepared in buffer 100 mM potassium phosphate (pH 7.4), is incubated at 37° C. for 15 min. The reaction is stopped by the addition of an equal volume of 30% acetic acid. The supernatant of the reaction mixture, obtained by centrifugation at 3000 g for 10 min at 4° C., is mixed equally with Ehrlich's solution and incubated 15 min at room temperature to have a colorimetric reaction. In parallel, a standard range of kynurenine or 3-hydroxykynurenin from 0 μM to 1000 μM is made under the same conditions. The amount of kynurenine or 3-hydroxykynurenin present in the sample is measured with a spectrophotometer at an OD of 492 nm and calculated using the standard range. […]
The activity test is based on the disappearance of kynurenine and 3-hydroxykynurenin which are substrates of AADAT. […] The amount of kynurenine or 3-hydroxykynurenin present in the sample was measured with a spectrophotometer at an OD of 492 nm and calculated using the standard range (FIG. 4E).

[3] = 10, 1 and 0.1 μL per day and per mouse

B1: AADAT: recombinant murine Alpha-Aminoadipate AminoTransferase (SEQ ID NO:13) expressed in E. coli and purified by affinity chromatography (protein, listed as Mus musculus)
chain: MNYSRFLTATSLARKPSPIRTTADILSKAPKTLISLAPGSPNPSMFPFKSAAFTVENGSTIRFEDDLIKRALQYSPSYGIPELLSWLKQFQVKLHNPPTVNYPPNQGQMDLCITSGCQDGLCKAFEMLINPGDTILVNEPLFPGTLYAMKPLGCNIINVPSDEHGIIPEGLKKILSQWKPEDSKDPTKKTPKFLYTVPNGNNPTGNSLTGDRKKEIYELARKYDFLIIEDDPYYFLQFSKPWEPTFLSMDVDGRVIRADTFSKTVSSGLRVGFMTGPKTLIQNIVLHTQVSSVHACTLSQLMILQLLHQWGEEGFLAHIDRTIDFYKNQRDSILAAADKWLRGLAEWHVPKAGMFLWIKVKGISDTKQLIEEKAIEREVLLVPGNGFFIDGSAPTSFFRASFSLATPAQMDTAFQRLAQLIKESL
[1]; 1 and 0.1 μL per day and per mouse
  protective effect at the two lower doses: protective effect is also seen
[1]; [3]
  clinical score: protection, with a dose effect
  histological score: protection, with a dose effect
  weight loss: protection, with a dose effect
[1]; 10, 1 and 0.1 μL per day and per mouse, day 12
  colon length: protection, with a dose effect
[2]
  transformation of KYNU into KYNA and XANA: A dose effect can be observed
